Test results: publication PMC5626996

Molecular target: NADH-dependent [FeFe]-hydrogenase Hyd1ABC (purified recombinant heterotrimer) (Syntrophomonas wolfei)

B1: Clostridial ferredoxin (Clostridium pasteurianum) (natural protein)
chain: MAYKIADSCVSCGACASECPVNAISQGDSIFVIDADTCIDCGNCANVCPVGAPVQE
B1 was tested, and the hydrogenase activity, Fdred → H2 (hydrogen production from reduced ferredoxin without NADH), 37°C, pH 7.5 was < 0.01 U · mg^−1 and the hydrogenase activity, H2 → Fdox (reduction of oxidized ferredoxin with hydrogen as the electron donor), 37°C, pH 7.5 was < 0.01 U · mg^−1.
